From publication PMC10976854 (Cell, 2024)

Target: the molecule itself
Assay: crystal structure

B1: mZP2-N2N3 (mouse ZP2 NTR ΔN1 construct) (domain or fragment, UniProt P20239 135-360, looked up)
chain: PAIQAETHEISEIVVCRRDLISFSFPQLFSRLADENQNVSEMGWIVKIGNGTRAHILPLKDAIVQGFNLLIDSQKVTLHVPANATGIVHYVQESSYLYTVQLELLFSTTGQKIVFSSHAICAPDLSVACNATHMTLTIPEFPGKLESVDFGQWSIPEDQWHANGIDKEATNGLRLNFRKSLLKTKPSEKCPFYQFYLSSLKLTFYFQGNMLSTVIDPECHCESPVS
  binding result: binds
